Residue numbers refer to the chain shown, from its start. Names and notes keep the numbering of the source. Like-named read-outs stand apart in the source and are kept apart here. Blank lines part the entries; values can stand above or below the binder they belong to.
What was measured:
[1] = target: T1, CD73 on U87-MG cell membrane surface (UniProt P21589 27-549, limits assumed); assay: flow cytometry on U87-MG cells
T1 construct: whole, on cells; also called CD73 endogenously expressed by U87-MG
T1 sequence (looked up): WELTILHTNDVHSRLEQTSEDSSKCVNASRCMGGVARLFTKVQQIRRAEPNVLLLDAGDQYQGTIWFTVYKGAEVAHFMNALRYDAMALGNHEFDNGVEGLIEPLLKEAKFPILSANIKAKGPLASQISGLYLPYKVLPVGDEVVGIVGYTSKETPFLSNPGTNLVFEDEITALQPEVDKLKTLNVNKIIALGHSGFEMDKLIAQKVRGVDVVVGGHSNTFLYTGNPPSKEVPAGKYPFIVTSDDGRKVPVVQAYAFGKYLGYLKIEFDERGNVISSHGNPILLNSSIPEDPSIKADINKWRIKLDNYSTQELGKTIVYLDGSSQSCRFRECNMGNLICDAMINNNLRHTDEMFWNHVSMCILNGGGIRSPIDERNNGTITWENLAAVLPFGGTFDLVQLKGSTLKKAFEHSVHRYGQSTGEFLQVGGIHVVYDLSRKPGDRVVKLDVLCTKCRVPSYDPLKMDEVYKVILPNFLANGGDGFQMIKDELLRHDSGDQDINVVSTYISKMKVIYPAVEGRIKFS

[2] = target: T1, CD73 on U87-MG cell membrane surface; assay: cell-based or functional assay
[3] = target: T2, human LAG3 on cell surface (293T-LAG3 cells; Jurkat-NFAT-PD1-LAG3 cells) (human, UniProt P18627 23-525); assay: flow cytometry on 293T-LAG3 cells
T2 construct: whole, on cells; also called huLAG3FL
T2 sequence (looked up): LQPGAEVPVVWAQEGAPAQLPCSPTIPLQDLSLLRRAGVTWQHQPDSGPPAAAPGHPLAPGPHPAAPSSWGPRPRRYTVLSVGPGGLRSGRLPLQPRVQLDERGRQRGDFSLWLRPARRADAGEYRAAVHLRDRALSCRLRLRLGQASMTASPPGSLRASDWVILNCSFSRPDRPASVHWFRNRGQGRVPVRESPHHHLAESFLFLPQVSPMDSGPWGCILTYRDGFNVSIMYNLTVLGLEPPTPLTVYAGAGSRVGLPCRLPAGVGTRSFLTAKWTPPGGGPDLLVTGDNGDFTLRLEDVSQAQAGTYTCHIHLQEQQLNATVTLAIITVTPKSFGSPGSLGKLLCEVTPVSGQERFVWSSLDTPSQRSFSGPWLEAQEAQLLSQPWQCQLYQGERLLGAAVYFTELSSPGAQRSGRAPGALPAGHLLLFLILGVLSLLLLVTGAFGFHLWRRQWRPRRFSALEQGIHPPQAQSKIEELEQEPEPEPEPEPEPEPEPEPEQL

human LAG3-mG1Fc [4] = target: T3, human LAG3-mG1Fc (human; mouse, UniProt P18627 23-450, limits assumed); assay: ELISA, LAG3-mG1Fc coated 2 ug/mL
T3 construct: Made by Akeso; also called huLAG3-mG1Fc; HuLAG3-mG1Fc; not shown: mouse IgG1 Fc (mG1Fc); limits not readable
T3 sequence (looked up): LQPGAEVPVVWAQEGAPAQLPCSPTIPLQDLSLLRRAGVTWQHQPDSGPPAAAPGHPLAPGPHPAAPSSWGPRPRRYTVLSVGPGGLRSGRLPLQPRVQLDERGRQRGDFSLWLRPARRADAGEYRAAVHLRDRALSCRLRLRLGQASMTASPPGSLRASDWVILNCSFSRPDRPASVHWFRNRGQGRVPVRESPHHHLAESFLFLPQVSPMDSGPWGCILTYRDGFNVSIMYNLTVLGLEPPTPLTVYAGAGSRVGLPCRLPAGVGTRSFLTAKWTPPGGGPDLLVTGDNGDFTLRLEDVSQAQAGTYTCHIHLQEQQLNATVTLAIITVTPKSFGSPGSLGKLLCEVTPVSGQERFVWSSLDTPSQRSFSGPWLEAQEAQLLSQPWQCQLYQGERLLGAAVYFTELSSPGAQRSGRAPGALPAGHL

[5] = target: T2, human LAG3 on cell surface (293T-LAG3 …); assay: flow cytometry on 293T-LAG3 cells; remark: listed apart in the source
human LAG3-mG1Fc [6] = target: T3, human LAG3-mG1Fc; assay: BLI (Fortebio), antigen on AMC sensor, antibody in solution, 30 C, 1:1 fit
human LAG3-mG1Fc [7] = target: T3, human LAG3-mG1Fc; assay: competitive flow cytometry, 3 nM LAG3-mG1Fc on Raji cells (competitor MHC II)
human LAG3-mG1Fc [8] = target: T3, human LAG3-mG1Fc; assay: as above; remark: listed apart in the source
hNT5E(1-552)-His [9] = target: T4, hNT5E(1-552)-His (human, UniProt P21589 27-552); assay: BLI (Fortebio), antigen on HIS1K sensor, antibody in solution, 37 C, 1:1 fit
T4 construct: also called NT5E-His; not shown: His tag
T4 sequence (looked up): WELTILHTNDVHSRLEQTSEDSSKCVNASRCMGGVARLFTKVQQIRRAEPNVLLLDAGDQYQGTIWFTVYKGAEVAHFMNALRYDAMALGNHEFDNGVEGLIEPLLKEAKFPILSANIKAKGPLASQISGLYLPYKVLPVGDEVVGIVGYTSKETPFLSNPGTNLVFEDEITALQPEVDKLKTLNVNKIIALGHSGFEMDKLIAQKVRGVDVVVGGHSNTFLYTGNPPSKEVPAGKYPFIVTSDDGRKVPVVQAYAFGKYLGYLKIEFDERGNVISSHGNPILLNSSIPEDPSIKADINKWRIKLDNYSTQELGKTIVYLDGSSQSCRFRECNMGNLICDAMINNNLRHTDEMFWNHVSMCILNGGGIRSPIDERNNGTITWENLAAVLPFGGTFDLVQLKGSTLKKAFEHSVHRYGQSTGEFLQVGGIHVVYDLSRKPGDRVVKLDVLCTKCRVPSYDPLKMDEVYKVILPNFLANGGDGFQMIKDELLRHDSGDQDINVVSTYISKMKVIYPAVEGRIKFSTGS

hNT5E(1-552)-His [10] = target: T4, hNT5E(1-552)-His; assay: ELISA, NT5E-His coated 1 ug/mL
hNT5E(1-552)-His [11] = target: T4, hNT5E(1-552)-His; assay: ELISA, NT5E-His coated 1 ug/mL; remark: listed apart in the source
hNT5E(1-552)-His [12] = target: T4, hNT5E(1-552)-His; assay: ELISA, NT5E-His coated 1 ug/mL; remark: listed apart in the source

EC50 [1]: 8.47 nM
B1: CPI-006 (antibody, V domains shown)
VH: QVQLVQSGAEVEKPGASVKVSCKASGYTFTSYWITWVRQAPGQGLEWMGDIYPGSGNTNYNEKFKTRVTITADKSTSTAYMELSSLRSEDTAVYYCAKEGGLTTEDYALDYWGQGTLVTVSS
VL: EIVLTQSPATLSLSPGERATLSCRASKNVSTSGYSYMHWYQQKPGQAPRLLIYLASNLESGIPPRFSGSGYGTDFTLTINNIESEDAAYYFCQHSRELPFTFGQGTKVEIKR

EC50 (nM), inhibition of CD73 enzyme activity on U87-MG cells [2]: 0.152 nM
Maximum inhibition rate (%) of CD73 enzyme activity on U87-MG cells [2]: 58.3%
B2: MEDI9447 (antibody, V domains shown)
VH: EVQLLESGGGLVQPGGSLRLSCAASGFTFSSYAYSWVRQAPGKGLEWVSAISGSGGRTYYADSVKGRFTISRDNSKNTLYLQMNSLRAEDTAVYYCARLGYGRVDEWGRGTLVTVSS
VL: QSVLTQPPSASGTPGQRVTISCSGSLSNIGRNPVNWYQQLPGTAPKLLIYLDNLRLSGVPDRFSGSKSGTSASLAISGLQSEDEADYYCATWDDSHPGWTFGGGTKLTVL

EC50 (human LAG3-mG1Fc [4]): 0.129 nM
EC50 [5]: 4.53 nM
EC50 (human LAG3-mG1Fc [8]): 1.48 nM
B5: H9L9(hG4WT) (antibody, human IgG4 S228P, kappa, V domains shown)
VH: QVQLQQWGAGLLKPSETLSLTCAVYGGSISDYYWNWIRQPPGKGLEWIGEINYRGTTNSNPSLKSRVTLSLDTSKNQFSLKLRSVTAADTAVYYCAFGYSDYEYDWFDPWGQGTLVTVSS
VL: EIVLTQSPATLSLSPGERATLSCRASQTISSYLAWYQQKPGQAPRLLIYDGSNRATGIPARFSGSGSGTDFTLTISSLEPEDFAVYYCQQRSNWPLTFGQGTNLEIKR
notes: Humanized anti-LAG3 IgG4 (wild type), kappa

EC50 [1]: 6.06 nM
Kd (hNT5E(1-552)-His [9]): 0.505 nM
Maximum signal height of analyte (nm) (hNT5E(1-552)-His [9]): 0.168 nm
S E (kdis) (hNT5E(1-552)-His [9]): 3.54e-06 s⁻¹
EC50 (hNT5E(1-552)-His [10]): 0.011 nM
EC50 (hNT5E(1-552)-His [11]): 0.015 nM
EC50 (hNT5E(1-552)-His [12]): 0.011 nM
B6: 19F3H2L3(hG1DM) (antibody, human IgG1, kappa, L234A L235A, V domains shown)
VH: QVQLVQSGAEVVKPGASVKVSCKASGYSFTGYTMNWVRQAPGQNLEWIGLINPYNAGTSYNQKFQGKVTLTVDKSTSTAYMELSSLRSEDTAVYYCARSEYRYGGDYFDYWGQGTTLTVSS
VL: DIVMTQSPSSLAVSVGERVTISCKSSQSLLNSSNQKNYLAWYQQKPGQAPKLLIYFASTRESGVPDRFSGSGSGTDFTLTISSLQAEDVAVYYCQQHYDTPYTFGGGTKLEIKR
notes: Humanized anti-CD73 IgG1 with L234A/L235A

Continued, binder first:

B3: H9L8(hG4WT) (antibody, human IgG4 S228P, kappa, V domains shown)
VH: B5 VH
VL: B5 VL with G51A, L96I
notes: as for B5
EC50 [3]: 0.501 nM
EC50 (human LAG3-mG1Fc [4]): 0.123 nM
EC50 [5]: 4.86 nM
Kd (human LAG3-mG1Fc [6]): 0.3 nM
Maximum signal height of analyte (nm) (human LAG3-mG1Fc [6]): 0.878 nm
S E (kdis) (human LAG3-mG1Fc [6]): 2.94e-06 s⁻¹
S E (kon) (human LAG3-mG1Fc [6]): 2330 M⁻¹ s⁻¹
koff (human LAG3-mG1Fc [6]): 0.000121 s⁻¹
kon (human LAG3-mG1Fc [6]): 405000 M⁻¹ s⁻¹
EC50 (human LAG3-mG1Fc [7]): 1.44 nM
EC50 (human LAG3-mG1Fc [8]): 1.46 nM

B4: H9L10(hG4WT) (antibody, human IgG4 S228P, kappa, V domains shown)
VH: B5 VH
VL: B5 VL with T28S, L96I
notes: Humanized anti-LAG3 IgG4 (wild type), kappa; also called HIL10(hG4WT)
EC50 (human LAG3-mG1Fc [4]): 0.14 nM
EC50 [5]: 3.92 nM
EC50 (human LAG3-mG1Fc [8]): 1.44 nM
